The record followed here is patent US9371374 (AbbVie / Abbott, dated 2016).

Substitutions are numbered along the chain they refer to. Where only a bound is given, the exact number is not on record here.

By Kd is commonly meant the equilibrium constant for the complex coming apart. A low value points to tighter binding. The term koff denotes the rate constant with which the complex falls apart. Lower therefore signals a long-lived complex. One may read the kon as the rate constant with which the complex forms.

Experiment [1] addresses T1, HCV Core1-169 (HCV-1, UniProt P26664 1-169).
T1 construct: also called Solid Phase HCV Core
T1 sequence: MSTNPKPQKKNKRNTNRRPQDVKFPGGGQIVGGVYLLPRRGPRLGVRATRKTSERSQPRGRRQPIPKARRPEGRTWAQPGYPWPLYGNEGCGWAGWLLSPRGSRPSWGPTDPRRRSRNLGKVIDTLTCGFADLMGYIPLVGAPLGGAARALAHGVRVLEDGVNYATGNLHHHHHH
Description: sandwich EIA, capture 208A-692.

For experiment [2], the target named is T1, HCV Core1-169. Description: sandwich EIA, capture C11-7.
The target of experiment [3] is T1, HCV Core1-169. Briefly: sandwich EIA, NC capture mAb. Also: test concentration or dose not given here.
Experiment [4] addresses T1, HCV Core1-169. Briefly: sandwich EIA, capture 208B-395-334.
Experiment [5] addresses T1, HCV Core1-169. Briefly: sandwich EIA, capture 208A-207-271.
For experiment [6], the target named is T1, HCV Core1-169. Briefly: sandwich EIA, capture 208A-110.
The target of experiment [7] is T1, HCV Core1-169. Description: sandwich EIA, capture 208B-612-226.
Experiment [8] deals with T1, HCV Core1-169. Briefly: sandwich EIA, capture 208A-293.
Experiment [9] concerns the target T1, HCV Core1-169. Description: sandwich EIA, capture 208B-1096.
Experiment [10] deals with HCV Core 134-171-TT peptide (ALRZ-9 peptide) (HCV-1). Description: SPR, captured mAb.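 Also: Anti-HCV Core mAbs from hybridoma supernatants held on a rabbit anti-mouse IgG CM5 surface, peptide flowed over 3 min then 4 min dissociation, duplicate concentrations.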 On the technique in general: SPR reads the build-up and loss of mass on a sensor chip optically.
The target of experiment [11] is T1, HCV Core1-169. Description: sandwich EIA, capture C11-9.
Experiment [12] concerns the target T1, HCV Core1-169. Briefly: sandwich EIA, capture 208A-557.
Experiment [13] addresses T1, HCV Core1-169. Briefly: sandwich EIA, capture 208B-741.
Experiment [14] concerns the target T1, HCV Core1-169. Briefly: EIA, core captured by anti-domain 1 mAb.
Experiment [15] addresses T1, HCV Core1-169. Briefly: EIA, coated core1-169.
For experiment [16], the target named is T1, HCV Core1-169. Description: SPR sandwich, C11-14 capture.
In experiment [17] the target is T1, HCV Core1-169. Description: SPR sandwich, C11-9 capture.
The target in experiment [18] is HCV Core 134-171-TT peptide (ALRZ-9 peptide) (HCV-1). Briefly: SPR, captured mAb.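 Also: Anti-HCV Core mAbs from hybridoma supernatants held on a rabbit anti-mouse IgG CM5 surface, peptide flowed over 3 min then 4 min dissociation, duplicate concentrations.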 The source holds these as a separate data set.
Experiment [19] has as its target T1, HCV Core1-169. Description: SPR sandwich, C11-3 capture.
For experiment [20], the target named is T1, HCV Core1-169. Description: SPR sandwich, C11-7 capture.

B1: HCV 208A-557 (antibody, V domains shown)
VH: QGQMQQSGAELVKPGASVKLSCKTSGFTFSSSYISWLKQKPGQSLEWIAWIYAGTGNTNYNQKFTDKAQLTVDTSSSTAYMQLSSLTTEDSAIYYCAISGTGFTYWGQGTLVTVSA
VL: DIALTQSPASLAVSLGQRATISCRASQSVSTSRYSYMHWYQQKPGQPPELLIKYASNLESGVPARFSGSGSGTDFTLNIHPVGEEDTATYYCQHSWDFPFTFGSGTKLEIKR
For the molecule B1, the OD492 in [1] was 0.13 OD; in experiment [2], 0.22 OD; in experiment [3], 0.18 OD; in experiment [4] it was 0.28 OD; in [5], 0.18 OD; in experiment [6], 0.44 OD. Moreover, the OD492 stood at 0.25 OD in [7]; 0.41 OD in [8]; 0.35 OD in [9]; 0.14 OD in [11]; 0.32 OD in experiment [12]; 0.38 OD in [13]. The molecule further returned a Kd in [10] of 0.091 nM. Besides, the koff in experiment [10] was determined as 0.00021 s⁻¹. The kon in [10] is 2.4e+06 M⁻¹ s⁻¹.

B2: HCV 208A-422 (antibody, V domains shown)
VH: DVQLQESGPGLVNPSQSLSLTCSVTGYSITSGYYWIWIQQSPGNKLEWMGYIKYDGGNNYSPSLKNRISIARDTSKNQCFLKLNSVTIEDTATYYCTRGSDSFDYWGQGTTLTVSS
VL: DIVLTQSPASLAVSLGQRAIISCKASQSVSFAGTNLMHWYQQKPGQQPKLLIYRASNLETGVPTRFSGSGSRTDFTLNIHPVEEDDAATYYCQQSREYYTFGGGTKLEIKR
Take B2: the “OD (A492)” value in experiment [14] was 0.18 OD; in experiment [15] it was 1.68 OD.

B3: HCV 208B-862 (antibody, V domains shown)
VH: DVQLQESGPGLVKPSQSLSLTCTVTGYSITSDYAWNWIRQFPGNKLEWMGYISYSGTTVYSPSLKSRISITRDTSKNQFFLQLNSVTIEDSATYYCGGNYWGQGTLVTVSA
VL: DVVLTQTPLSLPLSLGDQASISCRSSQTLLHSDGDTYLHWYLQKPGQSPKLLIYKLSNRFSGVPDRFSGSGSGTDFTLKISRVEAEDLGVYFCSQSTHVPYTFGGGTKLEIKR
As for B3, the “OD (A492)” value turned out to be 1.07 OD in experiment [14] and 0.49 OD in experiment [15]. The expected % binding was 12.6% in experiment [16], 8.9% in [17], 11.2% in experiment [19] and 15.2% in [20]. The affinity in [18], expressed as Kd, was 0.07 nM. In experiment [18], this molecule returned an off-rate constant (koff) of 0.0001 s⁻¹. Moreover, the kon in [18] was 1.4e+06 M⁻¹ s⁻¹.

B4: HCV 208A-207 (antibody, V domains shown)
VH: QGQLQQPGAEFVKPGASLKLSCRASGYTFTSYWIHWVKQRPGQGLEWIGEIDPSDSYINQNQKFRGKATLTVDKSSSTAYMELSGLTSEDSAVYYCARHYYGVLDSWGQGTTLTVSS
VL: DIVLTQSPATLSVTPGDRVSLSCRASQRIYNYLHWYQQKSHESPRLLTKYASQSISGIPSRFSGSGSGTDFILTINSVETEDFGMYFCQQSNSWPLTFGAGTKLELRR
For the molecule B4, the OD492 amounted to 0.42 OD in experiment [1]; 2.47 OD in experiment [2]; 0.37 OD in experiment [3]; 0.37 OD in experiment [4]; 0.36 OD in experiment [5]; 0.38 OD in experiment [6]. Further, the OD492 in [7] is 0.33 OD; in experiment [8], 0.42 OD; in experiment [9] it was 0.33 OD; in experiment [11], 2.2 OD; in experiment [12], 0.82 OD; in experiment [13], 0.3 OD. Further, the Kd in [10] was < 0.032 nM. Besides, the koff in [10] is < 1e-05 s⁻¹. Besides, the kon in experiment [10] is 310000 M⁻¹ s⁻¹.

B5: HCV 208B-395 (antibody, V domains shown)
VH: QVQLQQSGAGLAKPGASVKMSCKASGYTFTANKMHWTKQRPGQGLEWIGYIDPSSGYTQYNHKIQDKATLTADTSSSTAYMQLSSLTFEDSAVYYCTNFAYWGQGTLVTVSA
VL: B4 VL with T48I
Turning to B5, the OD492 in experiment [1] came to 0.15 OD; in experiment [2] it was 0.89 OD; in [3], 0.2 OD; in experiment [4], 0.23 OD; in experiment [5], 0.2 OD; in experiment [6], 0.21 OD. For the same molecule, the OD492 in [7] is 0.26 OD; in experiment [8] it was 0.26 OD; in experiment [9], 0.23 OD; in [11], 0.32 OD; in [12] it was 0.21 OD; in [13], 0.21 OD. Also, the Kd in experiment [10] was found to be 0.36 nM. The molecule further had a koff in experiment [10] of 0.00047 s⁻¹. This molecule registered a kon in experiment [10] of 1.3e+06 M⁻¹ s⁻¹.
